The values that follow come from paper doi:10.1101/058016.

The term pKd denotes −log10 of the Kd, conventionally taken in molar units.

The target of experiment [1] is calmodulin on CaM-Sepharose 4B (UniProt P0DP23). The experiment is described as follows: pull-down.
Experiment [2] deals with PDZ1 of PSD-95 (residues 61-151), soluble recombinant domain (murine) (UniProt Q62108). The experiment is described as follows: SPR.
The target of experiment [3] is calmodulin (CaM), used with Ca2+ (UniProt P0DP23). The experiment is described as follows: SPR. For orientation: SPR reads the build-up and loss of mass on a sensor chip optically.
Experiment [4] deals with PDZ3 of PSD-95 (residues 302-402), soluble recombinant domain (murine) (UniProt Q62108). The experiment is described as follows: SPR.
Experiment [5] deals with PDZ123 (PSD-95 residues 61-402)-HaloTag fusion on HaloLink resin (murine) (UniProt Q62108). The experiment is described as follows: pull-down.
Experiment [6] addresses PDZ123 of PSD-95 (residues 61-403), soluble recombinant fragment with all three PDZ domains (murine) (UniProt Q62108). The experiment is described as follows: SPR.

pKd: −log10 of the molar value.

For “r-synGAP (soluble recombinant synGAP, residues 103-1293 of synGAP A1-α1) (domain or fragment)”, the pKd in experiment [1] was 7.51; in experiment [2] it was 6.85; in experiment [3] it was 8.05; in experiment [4], 6.14.
r-synGAP S1283D (domain or fragment) displayed a percent reduction of binding relative to wild-type in experiment [5] of 50%. Moreover, the fold increase of KDapp over wild-type r-synGAP in experiment [6] turned out to be 4 fold.
Consider “r-synGAP phosphorylated by CaMKII (domain or fragment)”, for which the fold increase of KDapp over unphosphorylated r-synGAP in experiment [6] turned out to be 10 fold.
Regarding “sr-synGAP (C-terminal truncated synGAP, residues 103-725 of synGAP A1-α1) (domain or fragment)”, in experiment [1], the pKd is 6.68.
